In patent US20230374564:

Target: T1, VWF73-G6PDH conjugate (inhibited G6PDH-VWF reporter enzyme complex), P11411
T1 chain 1: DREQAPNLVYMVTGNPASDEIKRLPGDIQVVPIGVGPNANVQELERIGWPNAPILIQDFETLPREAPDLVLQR
T1 chain 2: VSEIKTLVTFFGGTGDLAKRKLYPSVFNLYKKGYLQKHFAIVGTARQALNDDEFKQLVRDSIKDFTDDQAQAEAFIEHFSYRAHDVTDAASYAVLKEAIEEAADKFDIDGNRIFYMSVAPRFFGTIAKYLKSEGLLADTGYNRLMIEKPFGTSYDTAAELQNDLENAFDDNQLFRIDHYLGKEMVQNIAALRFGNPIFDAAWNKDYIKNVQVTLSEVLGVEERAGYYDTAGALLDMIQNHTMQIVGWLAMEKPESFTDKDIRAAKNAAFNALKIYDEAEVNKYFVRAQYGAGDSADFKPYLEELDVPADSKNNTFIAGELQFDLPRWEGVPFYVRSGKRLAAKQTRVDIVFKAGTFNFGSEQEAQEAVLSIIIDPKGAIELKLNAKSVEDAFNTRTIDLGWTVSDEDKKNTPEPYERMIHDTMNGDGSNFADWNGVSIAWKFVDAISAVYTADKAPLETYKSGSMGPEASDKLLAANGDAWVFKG

B1: ADAMTS-13 (A Disintegrin And Metalloproteinase with a Thrombospondin type 1 motif, member 13) (protein)
chain: AAGGILHLELLVAVGPDVFQAHQEDTERYVLTNLNIGAELLRDPSLGAQFRVHLVKMVILTEPEGAPNITANLTSSLLSVCGWSQTINPEDDTDPGHADLVLYITRFDLELPDGNRQVRGVTQLGGACSPTWSCLITEDTGFDLGVTIAHEIGHSFGLEHDGAPGSGCGPSGHVMASDGAAPRAGLAWSPCSRRQLLSLLSAGRARCVWDPPRPQPGSAGHPPDAQPGLYYSANEQCRVAFGPKAVACTFAREHLDMCQALSCHTDPLDQSSCSRLLVPLLDGTECGVEKWCSKGRCRSLVELTPIAAVHGRWSSWGPRSPCSRSCGGGVVTRRRQCNNPRPAFGGRACVGADLQAEMCNTQACEKTQLEFMSQQCARTDGQPLRSSPGGASFYHWGAAVPHSQGDALCRHMCRAIGESFIMKRGDSFLDGTRCMPSGPREDGTLSLCVSGSCRTFGCDGRMDSQQVWDRCQVCGGDNSTCSPRKGSFTAGRAREYVTFLTVTPNLTSVYIANHRPLFTHLAVRIGGRYVVAGKMSISPNTTYPSLLEDGRVEYRVALTEDRLPRLEEIRIWGPLQEDADIQVYRRYGEEYGNLTRPDITFTYFQPKPRQAWVWAAVRGPCSVSCGAGLRWVNYSCLDQARKELVETVQCQGSQQPPAWPEACVLEPCPPYWAVGDFGPCSASCGGGLRERPVRCVEAQGSLLKTLPPARCRAGAQQPAVALETCNPQPCPARWEVSEPSSCTSAGGAGLALENETCVPGADGLEAPVTEGPGSVDEKLPAPEPCVGMSCPPGWGHLDATSAGEKAPSPWGSIRTGAQAAHVWTPAAGSCSVSCGRGLMELRFLCMDSALRVPVQEELCGLASKPGSRREVCQAVPCPARWQYKLAACSVSCGRGVVRRILYCARAHGEDDGEEILLDTQCQGLPRPEPQEACSLEPCPPRWKVMSLGPCSASCGLGTARRSVACVQLDQGQDVEVDEAACAALVRPEASVPCLIADCTYRWHVGTWMECSVSCGDGIQRRRDTCLGPQAQAPVPADFCQHLPKPVTVRGCWAGPCVGQGTPSLVPHEEAAAPGRTTATPAGASLEWSQARGLLFSPAPQPRRLLPGPQENSVQSSACGRQHLEPTGTIDMRGPGQADCAVAIGRPLGEVVTLRVLESSLNCSAGDMLLLWGRLTWRKMCRKLLDMTFSSKTNTLVVRQRCGRPGGGVLLRYGSQLAPETFYRECDMQLFGPWGEIVSPSLSPATSNAGGCRLFINVAPHARIAIHALATNMGAGTEGANASYILIRDTHSLRTTAFHGQQVLYWESESSQAEMEFSEGFLKAQASLRGQYWTLQSWVPEMQDPQSWKGKEGT
- ADAMTS-13 activity (% of the norm); plasma of TTP patient 01: TTP patient 01 with 9% of the norm
- ADAMTS-13 activity (% of the norm); plasma of TTP patient 02: TTP patient 02 with 7% of the norm
- ADAMTS-13 activity (% of the norm); plasma of patient with ADAMTS-13 autoantibodies: patient with 21% of the norm
- reactivation of G6PDH activity by cleavage of coupled VWF73 (absorption at 340 nm): occurs in a concentration-dependent manner with respect to ADAMTS-13 activity
- Δ mOD/min Average; 0% normal plasma in ADAMTS-13-deficient plasma: 208 Δ mOD/min
- Δ mOD/min Average; 5% normal plasma in ADAMTS-13-deficient plasma: 215 Δ mOD/min
- Δ mOD/min Average; 10% normal plasma in ADAMTS-13-deficient plasma: 220 Δ mOD/min
- Δ mOD/min Average; 25% normal plasma in ADAMTS-13-deficient plasma: 232 Δ mOD/min
- Δ mOD/min Average; 50% normal plasma in ADAMTS-13-deficient plasma: 256 Δ mOD/min
- Δ mOD/min Average; 75% normal plasma in ADAMTS-13-deficient plasma: 286 Δ mOD/min
- Δ mOD/min Average; 100% normal plasma in ADAMTS-13-deficient plasma: 311 Δ mOD/min
- Δ mOD/min Average; plasma of Healthy donor 01: 310 Δ mOD/min
- Δ mOD/min Average; plasma of Healthy donor 02: 311 Δ mOD/min
- Δ mOD/min Average; plasma of Healthy donor 03: 307 Δ mOD/min
- Δ mOD/min Average; plasma of Healthy donor 04: 310 Δ mOD/min
- Δ mOD/min Average; plasma of Healthy donor 05: 314 Δ mOD/min
- Δ mOD/min Average; plasma of Patient with ADAMTS-13 autoantibodies: 228 Δ mOD/min
- Δ mOD/min Average; plasma of TTP patient 01: 218 Δ mOD/min
- Δ mOD/min Average; plasma of TTP patient 02: 216 Δ mOD/min
- Δ mOD/min Measurement 1; 0% normal plasma in ADAMTS-13-deficient plasma: 208 Δ mOD/min
- Δ mOD/min Measurement 1; 5% normal plasma in ADAMTS-13-deficient plasma: 216 Δ mOD/min
- Δ mOD/min Measurement 1; 10% normal plasma in ADAMTS-13-deficient plasma: 221 Δ mOD/min
- Δ mOD/min Measurement 1; 25% normal plasma in ADAMTS-13-deficient plasma: 232 Δ mOD/min
- Δ mOD/min Measurement 1; 50% normal plasma in ADAMTS-13-deficient plasma: 255 Δ mOD/min
- Δ mOD/min Measurement 1; 75% normal plasma in ADAMTS-13-deficient plasma: 286 Δ mOD/min
- Δ mOD/min Measurement 1; 100% normal plasma in ADAMTS-13-deficient plasma: 310 Δ mOD/min
- Δ mOD/min Measurement 1; plasma of Healthy donor 01: 309 Δ mOD/min
- Δ mOD/min Measurement 1; plasma of Healthy donor 02: 310 Δ mOD/min
- Δ mOD/min Measurement 1; plasma of Healthy donor 03: 305 Δ mOD/min
- Δ mOD/min Measurement 1; plasma of Healthy donor 04: 312 Δ mOD/min
- Δ mOD/min Measurement 1; plasma of Healthy donor 05: 315 Δ mOD/min
- Δ mOD/min Measurement 1; plasma of Patient with ADAMTS-13 autoantibodies: 227 Δ mOD/min
- Δ mOD/min Measurement 1; plasma of TTP patient 01: 218 Δ mOD/min
- Δ mOD/min Measurement 1; plasma of TTP patient 02: 220 Δ mOD/min
- Δ mOD/min Measurement 2; 0% normal plasma in ADAMTS-13-deficient plasma: 208 Δ mOD/min
- Δ mOD/min Measurement 2; 5% normal plasma in ADAMTS-13-deficient plasma: 216 Δ mOD/min
- Δ mOD/min Measurement 2; 10% normal plasma in ADAMTS-13-deficient plasma: 221 Δ mOD/min
- Δ mOD/min Measurement 2; 25% normal plasma in ADAMTS-13-deficient plasma: 233 Δ mOD/min
- Δ mOD/min Measurement 2; 50% normal plasma in ADAMTS-13-deficient plasma: 257 Δ mOD/min
- Δ mOD/min Measurement 2; 75% normal plasma in ADAMTS-13-deficient plasma: 288 Δ mOD/min
- Δ mOD/min Measurement 2; 100% normal plasma in ADAMTS-13-deficient plasma: 312 Δ mOD/min
- Δ mOD/min Measurement 2; plasma of Healthy donor 01: 310 Δ mOD/min
- Δ mOD/min Measurement 2; plasma of Healthy donor 02: 311 Δ mOD/min
- Δ mOD/min Measurement 2; plasma of Healthy donor 03: 309 Δ mOD/min
- Δ mOD/min Measurement 2; plasma of Healthy donor 04: 311 Δ mOD/min
- Δ mOD/min Measurement 2; plasma of Healthy donor 05: 312 Δ mOD/min
- Δ mOD/min Measurement 2; plasma of Patient with ADAMTS-13 autoantibodies: 228 Δ mOD/min
- Δ mOD/min Measurement 2; plasma of TTP patient 01: 219 Δ mOD/min
- Δ mOD/min Measurement 2; plasma of TTP patient 02: 215 Δ mOD/min
- Δ mOD/min Measurement 3; 0% normal plasma in ADAMTS-13-deficient plasma: 207 Δ mOD/min
- Δ mOD/min Measurement 3; 5% normal plasma in ADAMTS-13-deficient plasma: 214 Δ mOD/min
- Δ mOD/min Measurement 3; 10% normal plasma in ADAMTS-13-deficient plasma: 219 Δ mOD/min
- Δ mOD/min Measurement 3; 25% normal plasma in ADAMTS-13-deficient plasma: 233 Δ mOD/min
- Δ mOD/min Measurement 3; 50% normal plasma in ADAMTS-13-deficient plasma: 254 Δ mOD/min
- Δ mOD/min Measurement 3; 75% normal plasma in ADAMTS-13-deficient plasma: 286 Δ mOD/min
- Δ mOD/min Measurement 3; 100% normal plasma in ADAMTS-13-deficient plasma: 311 Δ mOD/min
- Δ mOD/min Measurement 3; plasma of Healthy donor 01: 311 Δ mOD/min
- Δ mOD/min Measurement 3; plasma of Healthy donor 02: 312 Δ mOD/min
- Δ mOD/min Measurement 3; plasma of Healthy donor 03: 306 Δ mOD/min
- Δ mOD/min Measurement 3; plasma of Healthy donor 04: 309 Δ mOD/min
- Δ mOD/min Measurement 3; plasma of Healthy donor 05: 314 Δ mOD/min
- Δ mOD/min Measurement 3; plasma of Patient with ADAMTS-13 autoantibodies: 229 Δ mOD/min
- Δ mOD/min Measurement 3; plasma of TTP patient 01: 218 Δ mOD/min
- Δ mOD/min Measurement 3; plasma of TTP patient 02: 214 Δ mOD/min
